{"source": "paper PMC3334968", "about": "“Development of a Tetrameric Streptavidin Mutein with Reversible Biotin Binding Capability: Engineering a Mobile Loop as an Exit Door for Biotin” (PLoS ONE, 2012)", "proteins": {"B1": {"name": "8-aa-loop-H127C mutein (streptavidin) (natural protein, UniProt P22629 25-183, looked up)", "chain": "DPSKDSKAQVSAAEAGITGTWYNQLGSTFIVTAGADGALTGTYESAVGNAESRYVLTGRYDSAPATDGSGTALGWTVAWKNNYRNAHSATTWSGQYVGGAEARINTQWLLTSGDSSNGSDGSTLVGCDTFTKVKPSAASIDAAKKAGVNNGNPLDAVQQ", "modifications": "disulfide bond between the Cys-127 residues of adjacent subunits", "notes": "streptavidin; loop7-8 (residues 114-121) replaced and H127C added; SDS-PAGE was done without biotin; also called MH127C; 8-aa-loop-H127 mutein; source: B. subtilis WB800, secreted, purified from culture supernatant (biotin-agarose)"}}, "target": "the molecule itself", "assay": "SDS-PAGE of unboiled samples; oligomeric state in SDS-PAGE, samples not boiled, without biotin, with or without 0.7 M β-mercaptoethanol"}
{"protein": "B1", "values": [{"measurement": "stoichiometry N", "result": 4}]}
